Measured values taken from US20260258083A1 (Amgen, published 2026).
Where no end group is shown, it is not given here. Side-chain parts run from the residue outwards. [ ]: non-standard residue; d: D form. thiosuccinimide (maleimide) = thiosuccinimide linkage from the Cys thiol to the maleimide of 4-arm 5 kDa PEG; thiosuccinimide = thiosuccinimide linkage joining the Cys side chain to 4-arm 5 kDa PEG; pGlu = O=C1CC[C@@H](C(=O)O)N1; disulfide = not defined here; MAL = maleimide

Columns and labels:
[1] = target: T1, FLT3xCD3 TCE SEQ ID NO 93; experiment: Table 5, ratio to a reference peptide that the table does not name; design: reference not given here
T1 construct: Single-chain scFv-scFv-scFc T cell engager; also called FLT3×CD3ε TCE; FLT3_7 A8xCD3-scFc Bispecific HLE molecule

[2] = target: T1, FLT3xCD3 TCE SEQ ID NO 93; experiment: SPR solution competition, peptide titrated into fixed TCE, free TCE read on peptide capture surface
From the text: (§1) For the binding assessment, Individual binding isotherms were constructed by titrating the respective peptide of interest into a fixed concentration of TCE-containing solution in PBST. At least 4 hrs equilibration time were allotted (r.t.) prior to analysis by SPR. For the analysis, a calibration curve was first constructed of the TCE analyte being assessed. […] The ‘free’ TCE concentration measured was plotted as a function of log peptide concentration and fit using non-linear regression analysis to a 4 parameter logistic function to derive an IC50.

[3] = target: T1, FLT3xCD3 TCE SEQ ID NO 93; experiment: KinExA equilibrium in solution, Table 5
Experimental: (§2) 1. Preparation of NHS-activated sepharose fast-flow beads: [0565] 2. Fast flow sepharose suspension in 100% IPA, washed twice with milliQ H20, mild centrifugation to pool beads in between wash steps. [0566] 3. […] 4. Added 80 mM PDEA to activate the resin for thiol exchange, 10 mins, r.t. [0568] 5. […] 6. Added 30 μg/mL of binding peptide, […] […] (SEQ ID NO: 300), reaction for 1 hr to functionalize resin. [0570] 7. Quench with 10 mM L-Cys for 1 hour. [0571] 8.

[4] = target: T1, FLT3xCD3 TCE SEQ ID NO 93; experiment: KinExA association kinetics, Table 5
Experimental: as §2

[5] = target: T1, FLT3xCD3 TCE SEQ ID NO 93; experiment: kinetics, Table 5
Experimental: as §2

[6] = target: T2, Steap 1xCD3 TCE SEQ ID NO 373 + 374 + 375; experiment: SPR, peptide immobilised on CM5 (PDEA), TCE as analyte, kinetic 1:1 fit
T2 construct: also called STEAP1×CD3e heterodimeric TCE; Ab-A1 Xmab2+1

[7] = target: T1, FLT3xCD3 TCE SEQ ID NO 93; experiment: as above
[8] = target: T3, DLL3xCD3 TCE SEQ ID NO 104; experiment: as above
T3 construct: Single-chain T cell engager; also called DLL3×CD3ε TCE

[9] = target: T2, Steap 1xCD3 TCE SEQ ID NO 373 + 374 + …; experiment: SPR solution competition, peptide titrated into fixed TCE, free TCE read on peptide capture surface
From the text: as §1

[10] = target: CDH3-CD3-MSLN-CD3 TCE (SEQ ID NO 255); experiment: SPR, immobilised peptide, bivalent analyte model, fast component
[11] = target: CDH3-CD3-MSLN-CD3 TCE (SEQ ID NO 255); experiment: SPR, peptide immobilised on CM5 (PDEA), TCE as analyte, steady state affinity
[12] = target: T3, DLL3xCD3 TCE SEQ ID NO 104; experiment: KinExA equilibrium in solution, KD relative to peptide concentration, TCE 250 pM
[13] = target: T1, FLT3xCD3 TCE SEQ ID NO 93; experiment: as above
[14] = target: T1, FLT3xCD3 TCE SEQ ID NO 93; experiment: KinExA equilibrium in solution, KD relative to peptide concentration, TCE 125 pM
[15] = target: T2, Steap 1xCD3 TCE SEQ ID NO 373 + 374 + …; experiment: KinExA equilibrium in solution, KD relative to peptide concentration, TCE 333 pM
Experimental: 1. […] 2. […] 3. […] 4. Added 80 mM PDEA to activate the resin for thiol exchange, 10 mins, r.t. […] 5. […] 6. […] 7. […] 8.

[16] = target: CDH3-CD3-MSLN-CD3 TCE (SEQ ID NO 255); experiment: KinExA equilibrium in solution, KD relative to peptide concentration, TCE 250 pM
[17] = target: T1, FLT3xCD3 TCE SEQ ID NO 93; experiment: KinExA equilibrium in solution, Table 5; single reference peptide QDGNEEMG (original CD3ε epitope)
Experimental: as §2

Sequence of CDH3-CD3-MSLN-CD3 TCE (SEQ ID NO 255) (chain, as listed by the source): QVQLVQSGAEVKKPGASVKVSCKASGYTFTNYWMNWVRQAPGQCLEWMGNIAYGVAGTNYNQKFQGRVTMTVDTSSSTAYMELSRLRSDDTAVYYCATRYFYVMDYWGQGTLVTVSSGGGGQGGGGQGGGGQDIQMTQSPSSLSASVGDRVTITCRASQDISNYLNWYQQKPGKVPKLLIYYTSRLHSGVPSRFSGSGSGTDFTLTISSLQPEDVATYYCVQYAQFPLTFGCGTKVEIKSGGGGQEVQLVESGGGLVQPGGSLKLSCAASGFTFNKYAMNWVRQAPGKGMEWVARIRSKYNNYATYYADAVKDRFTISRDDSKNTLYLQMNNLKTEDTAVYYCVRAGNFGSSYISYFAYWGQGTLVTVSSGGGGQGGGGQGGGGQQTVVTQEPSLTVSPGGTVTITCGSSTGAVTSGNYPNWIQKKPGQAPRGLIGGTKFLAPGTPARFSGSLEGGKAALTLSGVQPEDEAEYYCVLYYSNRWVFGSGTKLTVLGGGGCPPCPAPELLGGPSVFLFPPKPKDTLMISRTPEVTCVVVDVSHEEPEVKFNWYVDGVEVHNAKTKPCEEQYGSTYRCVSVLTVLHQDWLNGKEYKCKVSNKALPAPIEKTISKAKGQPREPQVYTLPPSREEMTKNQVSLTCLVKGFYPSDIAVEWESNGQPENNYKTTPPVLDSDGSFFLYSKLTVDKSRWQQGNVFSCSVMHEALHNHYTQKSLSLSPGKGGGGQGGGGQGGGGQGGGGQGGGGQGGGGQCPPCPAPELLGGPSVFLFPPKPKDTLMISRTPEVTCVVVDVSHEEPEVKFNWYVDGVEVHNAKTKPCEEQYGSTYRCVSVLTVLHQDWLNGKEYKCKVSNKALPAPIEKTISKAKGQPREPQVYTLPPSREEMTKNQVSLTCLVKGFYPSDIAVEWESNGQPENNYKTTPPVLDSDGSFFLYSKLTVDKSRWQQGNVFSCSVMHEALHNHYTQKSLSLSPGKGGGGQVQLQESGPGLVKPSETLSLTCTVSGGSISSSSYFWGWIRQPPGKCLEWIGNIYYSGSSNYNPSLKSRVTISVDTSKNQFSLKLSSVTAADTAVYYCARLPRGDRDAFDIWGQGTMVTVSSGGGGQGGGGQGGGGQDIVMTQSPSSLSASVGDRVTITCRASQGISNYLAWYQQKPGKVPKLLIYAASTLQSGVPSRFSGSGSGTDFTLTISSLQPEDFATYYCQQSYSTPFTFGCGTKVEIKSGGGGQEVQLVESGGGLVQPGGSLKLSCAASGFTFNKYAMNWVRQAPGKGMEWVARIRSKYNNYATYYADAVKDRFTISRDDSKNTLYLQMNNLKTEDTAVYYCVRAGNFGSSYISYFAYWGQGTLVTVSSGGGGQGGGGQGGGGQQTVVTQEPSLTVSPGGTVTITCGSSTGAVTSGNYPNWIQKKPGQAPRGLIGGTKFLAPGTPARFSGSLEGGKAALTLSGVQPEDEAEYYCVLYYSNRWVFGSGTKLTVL

Binder: [pGlu]DGNEEMGKGMEENGDQC (Position 1 is written E for pE) [pGlu-DGNEEMGKGMEENGDQC]
- fold-Kd [1]: 203 fold
- IC50 [2]: 2.4 nM
- Kd [3]: 0.176 nM

B1: (QDGNEEMGKGMEENGDQC)4 -PEG(20 kDa) (peptide)
peptide: QDGNEEMGKGMEENGDQC(4‑arm PEG 20 kDa)
modifications: also: four peptides on one 4-arm PEG
notes: Peptide-PEG conjugate with four peptides on one PEG; also called CD3ε PepPOL, v1 (20 kDa); 4-arm 20 kDa PepPOL conjugate
- fold-kon [1]: 1.14 fold
- kon [4]: 199000 M⁻¹ s⁻¹
- Kd [3]: 22 nM
- koff [5]: 0.0047 s⁻¹

B2: (pGlu-DGNEEMGKGMEENGDQC)4 -PEG(20 kDa) (peptide)
peptide: [pGlu]DGNEEMGKGMEENGDQC([disulfide-4‑arm PEG 20 kDa])
modifications: reading uncertain; also: four peptides on one 4-arm PEG, printed as pGlu-DGNEEMGKGMEENGDQC
notes: also called CD3ε PepPOL, v2; Pep-PEG v2
- fold-Kd [1]: 203 fold
- fold-koff [1]: 0.01 fold
- fold-kon [1]: 16.2 fold
- kon [4]: 1.12e+07 M⁻¹ s⁻¹
- Kd [3]: 0.176 nM
- koff [5]: 0.00195 s⁻¹

Binder: QDGNEEMGQDGNEEMG [QDGNEEMG-QDGNEEMG]
- fold-Kd [1]: 3.25 fold
- fold-koff [1]: 0.24 fold
- fold-kon [1]: 0.77 fold
- kon [4]: 533000 M⁻¹ s⁻¹
- Kd [3]: 11 nM
- koff [5]: 0.00586 s⁻¹

Binder: [pGlu]DGNEELKGC (also called ID 14974) [pGlu-DGNEELKGC]
- Kd [6]: 2.57 nM
- koff [6]: 0.00514 s⁻¹
- kon [6]: 2e+06 M⁻¹ s⁻¹
- Kd [7]: 1.28 nM
- koff [7]: 0.0024 s⁻¹
- kon [7]: 1.88e+06 M⁻¹ s⁻¹
- Kd [8]: 1.3 nM
- koff [8]: 0.00279 s⁻¹
- kon [8]: 2.14e+06 M⁻¹ s⁻¹
- fold-Kd [1]: 252 fold
- IC50 [9]: 13.4 nM
- IC50 [2]: 2.7 nM
- Kd [3]: 0.142 nM
- koff [10]: 0.0212 s⁻¹
- kon [10]: 2.42e+06 M⁻¹ s⁻¹
- Kd [11]: 13.3 nM

Binder: [pGlu]DGSEELKGC (Position 1 is written E for pGlu) [pGlu-DGSEELKGC]
- IC50 [9]: 16.7 nM
- IC50 [2]: 8.2 nM

Binder: [pGlu]DGEEELKGC([thiosuccinimide (maleimide)-4‑arm PEG 5 kDa])-NH2 (also: 4-arm PEG conjugate, number of peptide copies not given here, TCE masking molecule) [79677-1]
- Kd [12]: 4.69 nM

Binder: [pGlu]DGEEELKGC([thiosuccinimide-4‑arm PEG 20 kDa])-NH2 (also: 4-arm PEG conjugate, number of peptide copies not given here, TCE masking molecule) [79676-1]
- Kd [12]: 12.8 nM

Binder: [pGlu]DGIEELKGC (Position 1 is written E for pGlu) [pGlu-DGIEELKGC]
- IC50 [9]: 11.6 nM
- IC50 [2]: 3.6 nM

Binder: [pGlu]DGNEELKGK([acetamide‑thioether-mPEG 20 kDa])-OH (also: Lys 10 side chain linked via thioether (acetamide) to linear 20 kDa mPEG, TCE masking molecule) [73136-2]
- Kd [13]: 0.173 nM

Binder: [pGlu]DGEEELKGC [pGlu-DGEEELKGC]
- Kd [6]: 27.4 nM
- koff [6]: 0.0834 s⁻¹
- kon [6]: 3.04e+06 M⁻¹ s⁻¹
- Kd [7]: 7.3 nM
- koff [7]: 0.0295 s⁻¹
- kon [7]: 4.04e+06 M⁻¹ s⁻¹
- Kd [8]: 20.5 nM
- koff [8]: 0.0542 s⁻¹
- kon [8]: 2.64e+06 M⁻¹ s⁻¹
- IC50 [9]: 28.6 nM
- IC50 [2]: 14.7 nM
- koff [10]: 0.236 s⁻¹
- kon [10]: 1.29e+06 M⁻¹ s⁻¹
- Kd [11]: 72.5 nM

Binder: [pGlu]DGVEELKGC (Position 1 is written E for pGlu) [pGlu-DGVEELKGC]
- IC50 [9]: 26.4 nM
- IC50 [2]: 9 nM

Binder: [pGlu]DGTEELKGC (Position 1 is written E for pGlu) [pGlu-DGTEELKGC]
- Kd [6]: 35.2 nM
- koff [6]: 0.0734 s⁻¹
- kon [6]: 2.09e+06 M⁻¹ s⁻¹
- Kd [7]: 8.88 nM
- koff [7]: 0.0285 s⁻¹
- kon [7]: 3.21e+06 M⁻¹ s⁻¹
- Kd [8]: 14.8 nM
- koff [8]: 0.0713 s⁻¹
- kon [8]: 4.81e+06 M⁻¹ s⁻¹
- IC50 [9]: 59.9 nM
- IC50 [2]: 39.7 nM

Binder: [pGlu]DGNEELKGC([thiosuccinimide-4‑arm PEG 5 kDa])-NH2 (also: 4-arm PEG conjugate, number of peptide copies not given here) [79675-1]
- Kd [12]: 0.0623 nM

B3: QDGNEEMG-GMEENGDQ (peptide)
peptide: QDGNEEMGGMEENGDQ
notes: how the reversed half is joined is not explained
- fold-Kd [1]: 3.62 fold
- fold-koff [1]: 0.19 fold
- fold-kon [1]: 0.69 fold
- kon [4]: 476000 M⁻¹ s⁻¹
- Kd [3]: 9.88 nM
- koff [5]: 0.00471 s⁻¹

Binder: [pGlu]DGNEELKGC([thiosuccinimide-4‑arm PEG 5 kDa])-OH [72103-1]
- Kd [14]: 0.0777 nM

B4: pEDGNEELKGC-NH2 (peptide)
peptide: [pGlu]DGNEELKGC-NH2
SMILES: CC(C)C[C@H](NC(=O)[C@H](CCC(=O)O)NC(=O)[C@H](CCC(=O)O)NC(=O)[C@H](CC(N)=O)NC(=O)CNC(=O)[C@H](CC(=O)O)NC(=O)[C@@H]1CCC(=O)N1)C(=O)N[C@@H](CCCCN)C(=O)NCC(=O)N[C@@H](CS)C(N)=O
notes: Unconjugated peptide (Conjugate column: N/A)
- Kd [15]: 1.59 nM

Binder: QDGNEEMGK [QDGNEEMG-K]
- kon [4]: 806000 M⁻¹ s⁻¹
- Kd [3]: 22.3 nM
- koff [5]: 0.0179 s⁻¹

Binder: [pGlu]DGNEELKGC([thiosuccinimide-4‑arm PEG 20 kDa])-NH2 (also: 4-arm PEG conjugate, number of peptide copies not given here) [79674-1]
- Kd [16]: 0.0638 nM
- Kd [12]: 0.0372 nM

Binder: [pGlu]DGNEELKGC([MAL-PEG 5 kDa]) (also: four peptides per PEG) [(pGlu-DGNEELKGC)4 -MAL PEG(5 kDa)]
- Kd [3]: 0.142 nM

Binder: QDGNEEMG
- Kd [17]: 35.8 nM
- IC50 [2]: 133 nM
- kon [4]: 692000 M⁻¹ s⁻¹
- koff [5]: 0.0248 s⁻¹

Binder: [pGlu]DGNEELKPGC (Position 1 is written E for pGlu) [pGlu-DGNEELKPGC]
- IC50 [2]: 5.2 nM

Binder: [pGlu]DGNEELKGC([MAL-PEG 10 kDa]) (also: four peptides per PEG) [(pGlu-DGNEELKGC)4 -MAL PEG(10 kDa)]
- Kd [3]: 0.142 nM

Binder: [pGlu]DGNEELPKPGC (Position 1 is written E for pGlu) [pGlu-DGNEELPKPGC]
- IC50 [2]: 2.7 nM

Binder: QDGNEEMGKQDGNEEMG [QDGNEEMG-K-QDGNEEMG]
- fold-Kd [1]: 2.77 fold
- fold-koff [1]: 0.28 fold
- fold-kon [1]: 0.56 fold
- kon [4]: 448000 M⁻¹ s⁻¹
- Kd [3]: 8.05 nM
- koff [5]: 0.00497 s⁻¹
